Sequences and labels used below:
B1: LINE1-full (parent)
chain: UACGUAGGUGGUUUUCCCCUGAUAGUGCUAAGGGGGCCUGGAAGUUUGGACUGGGCAGAGCUCAACACAGCGUGGCAAAGUGGCUGUGGCUAGACUGCCUCUCUGGAUUCCUCGUCACUCAGCAGGGCAUCUCUGAGAGAAAUGCC

The variants in this data set derive from B1. Description: self-cleavage, relative activity (ratio to wild type); higher = more cleavage; in vitro, sequencing; the parent is a self-cleaving ribozyme.
Regarding UACGUAGGUGGUUUUCCCCUGAUAGUGCUAAGGGGGCCUGGAAGUUUGGACUGGGCAGAGCUCAACACGGCGUGGCAAAGUGGCUGUGGCUAUACUGCCUCUCUGGAUUCCUCGUCACUCAGCAGGGCAUCUCUGAGAGAAAUGCC [A69G G93U], the self-cleavage stood at 0.01.
As for UACGUAGGUGGUUUUCCCCUGAUAGUGCUAAGGGGGCCUGGAAGUUUGGACUGGGCAGAGCUCAACACGGCGUGGCAAAGUGGCUGUGGCUAGACUGCCUCUCUGGAUUCCUCGUCACUCAGCAGGGCAUCUCUGAGAGAAAUGCA [A69G C146A], the self-cleavage was found to be 0.77.
The value for UACGUAGGUGGUUUUCCCCUGAUAGUGCUAAGGGGGCCUGGAAGUUUGGACUGGGCAGAGCUCAACACGGCGUGGCAAAGUGGCUGUGGCCAGACUGCCUCUCUGGAUUCCUCGUCACUCAGCAGGGCAUCUCUGAGAGAAAUGCC [A69G U91C] was 0.
In the case of UACGUAGGUGGUUUUCCCCUGAUAGUGCUAAGGGGGCCUGGAAGUUUGGACUGGGCAGAGCUCAACACGGCGUGGCAAAGUGGCUGUGGCUAGACUGCCUCUCUGGAUUCCUCGUCACUCAGCAGGGCGUCUCUGAGAGAAAUGCC [A69G A129G], the self-cleavage is 0.58.
With UACGUAGGUGGUUUUCCCCUGAUAGUGCUAAGGGGGCCUGGAAGUUUGGACUGGGCAGAGCUCAACACGGCGUGGCAAAGUGGCUGAGGCUAGACUGCCUCUCUGGAUUCCUCGUCACUCAGCAGGGCAUCUCUGAGAGAAAUGCC [A69G U87A], the self-cleavage came to 0.03.
With UACGUAGGUGGUUUUCCCCUGAUAGUGCUAAGGGGGCCUGGAAGUUUGGACUGGGCAGAGCUCAACACGGCGUGGCAAAGUGGCUGCGGCUAGACUGCCUCUCUGGAUUCCUCGUCACUCAGCAGGGCAUCUCUGAGAGAAAUGCC [A69G U87C], the self-cleavage is 0.07.
Consider UACGUAGGUGGUUUUCCCCUGAUAGUGCUAAGGGGGCCUGGAAGUUUGGACUGGGCAGAGCUCAACACGGCGUGGCAAAGUGGCUGGGGCUAGACUGCCUCUCUGGAUUCCUCGUCACUCAGCAGGGCAUCUCUGAGAGAAAUGCC [A69G U87G], for which the self-cleavage came out at 0.48.
Then UACGUAGGUGGUUUUCCCCUGAUAGUGCUAAGGGGGCCUGGAAGUUUGGACUGGGCAGAGCUCAACACGGCGUGGCAAAGUGGCUGUGGCUAGACUGCCUCUCUGGAUUCCUCGUCACUCAGCAGGGUAUCUCUGAGAGAAAUGCC [A69G C128U], with 0.63.
Then UACGUAGGUGGUUUUCCCCUGAUAGUGCUAAGGGGGCCUGGAAGUUUGGACUGGGCAGAGCUCAACACGGCGUGGUAAAGUGGCUGUGGCUAGACUGCCUCUCUGGAUUCCUCGUCACUCAGCAGGGCAUCUCUGAGAGAAAUGCC [A69G C76U], with 0.69; and UACGUAGGUGGUUUUCCCCUGAUAGUGCUAAGGGGGCCUGGAAGUUUGGACUGGGCAGAGCUCAACACGGCGUGGCAAAGUGGCUGUGGCUAGACUGCCUCUCUGGAUUCCUCGUCACUCAGCAGGGCAUCUCUGCGAGAAAUGCC [A69G A136C], with 0.49; and UACGUAGGUGGUUUUCCCCUGAUAGUGCUAAGGGGGCCUGGAAGUUUGGACUGGGCAGAGCUCAACACGGCGAGGCAAAGUGGCUGUGGCUAGACUGCCUCUCUGGAUUCCUCGUCACUCAGCAGGGCAUCUCUGAGAGAAAUGCC [A69G U73A], with 0.28.
In the case of UACGUAGGUGGUUUUCCCCUGAUAGUGCUAAGGGGGCCUGGAAGUUUGGACUGGGCAGAGCUCAACACGGUGUGGCAAAGUGGCUGUGGCUAGACUGCCUCUCUGGAUUCCUCGUCACUCAGCAGGGCAUCUCUGAGAGAAAUGCC [A69G C71U], the self-cleavage turned out to be 0.1.
Then UACGUAGGUGGUUUUCCCCUGAUAGUGCUAAGGGGGCCUGGAAGUUUGGACUGGGCAGAGCUCAACACGGCGUGGCAAAGUGGGUGUGGCUAGACUGCCUCUCUGGAUUCCUCGUCACUCAGCAGGGCAUCUCUGAGAGAAAUGCC [A69G C84G], with 0.06.
With UACGUAGGUGGUUUUCCCCUGAUAGUGCUAAGGGGGCCUGGAAGUUUGGACUGGGCAGAGCUCAACACGGCGUGGCAAAGUGGCUGUGGCUAGACUGCCUCUCUGGAUUCCUCGUCACUCAGCAGGGCAUCUCUGAGAGAAAUGAC [A69G C145A], the self-cleavage came out at 0.71.
The value for UACGUAGGUGGUUUUCCCCUGAUAGUGCUAAGGGGGCCUGGAAGUUUGGACUGGGCAGAGCUCAACACGGCGUGGCAAAGUGGCUGUGGCUAGACUGCCUCUCUGGUUUCCUCGUCACUCAGCAGGGCAUCUCUGAGAGAAAUGCC [A69G A107U] was 0.
Then UACGUAGGUGGUUUUCCCCUGAUAGUGCUAAGGGGGCCUGGAAGUUUGGACUGGGCAGAGCUCAACACGGCGUGGCAAAGUGGCUGUGGCUAGACUGCCUCUCUAGAUUCCUCGUCACUCAGCAGGGCAUCUCUGAGAGAAAUGCC [A69G G105A], with 0.62.
Then UACGUAGGUGGUUUUCCCCUGAUAGUGCUAAGGGGGCCUGGAAGUUUGGACUGGGCAGAGCUCAACACGGCGUGGCAAAGUGGCUGUGGCUAGACUGCCUCUCUGGAUUCCUCGUCACUCAGUAGGGCAUCUCUGAGAGAAAUGCC [A69G C123U], with 0.45.
Consider UACGUAGGUGGUUUUCCCCUGAUAGUGCUAAGGGGGCCUGGAAGUUUGGACUGGGCAGAGCUCAACACGGCGUGGCAAAGUGGCUGUGACUAGACUGCCUCUCUGGAUUCCUCGUCACUCAGCAGGGCAUCUCUGAGAGAAAUGCC [A69G G89A], for which the self-cleavage stood at 0.03.
As for UACGUAGGUGGUUUUCCCCUGAUAGUGCUAAGGGGGCCUGGAAGUUUGGACUGGGCAGAGCUCAACACGGCGUGGCAAAGUGGCUGUGGAUAGACUGCCUCUCUGGAUUCCUCGUCACUCAGCAGGGCAUCUCUGAGAGAAAUGCC [A69G C90A], the self-cleavage worked out at 0.
Then UACGUAGGUGGUUUUCCCCUGAUAGUGCUAAGGGGGCCUGGAAGUUUGGACUGGGCAGAGCUCAACACGGCGUGGCAAAGUGGCUGUGGUUAGACUGCCUCUCUGGAUUCCUCGUCACUCAGCAGGGCAUCUCUGAGAGAAAUGCC [A69G C90U], with 0.07.
Then UACGUAGGUGGUUUUCCCCUGAUAGUGCUAAGGGGGCCUGGAAGUUUGGACUGGGCAGAGCUCAACACGGCGUGGCAAAGUGGCUGUGGCUAGACUGCCUCUCUGGAUUCCUAGUCACUCAGCAGGGCAUCUCUGAGAGAAAUGCC [A69G C113A], with 0.48; and UACGUAGGUGGUUUUCCCCUGAUAGUGCUAAGGGGGCCUGGAAGUUUGGACUGGGCAGAGCUCAACACGGCGUGGCAAAGUGGCUGUGGCUAGACUGCCUCUCUGGAUUCCUUGUCACUCAGCAGGGCAUCUCUGAGAGAAAUGCC [A69G C113U], with 0.41; and UACGUAGGUGGUUUUCCCCUGAUAGUGCUAAGGGGGCCUGGAAGUUUGGACUGGGCAGAGCUCAACACGGCGUGGCAAAGCGGCUGUGGCUAGACUGCCUCUCUGGAUUCCUCGUCACUCAGCAGGGCAUCUCUGAGAGAAAUGCC [A69G U81C], with 0.54.
For UACGUAGGUGGUUUUCCCCUGAUAGUGCUAAGGGGGCCUGGAAGUUUGGACUGGGCAGAGCUCAACACGGCGUGGCAAAGAGGCUGUGGCUAGACUGCCUCUCUGGAUUCCUCGUCACUCAGCAGGGCAUCUCUGAGAGAAAUGCC [A69G U81A], the self-cleavage was 0.38.
UACGUAGGUGGUUUUCCCCUGAUAGUGCUAAGGGGGCCUGGAAGUUUGGACUGGGCAGAGCUCAACACGGCGUGGCAAAGUGGCUGUGGCUAGACUGCCUCUCUGGAUUCCUCGUCACUCAGCAGGGCAUCUCUGAGAGAAAUACC [A69G G144A]: the self-cleavage is 1.02.
Regarding UACGUAGGUGGUUUUCCCCUGAUAGUGCUAAGGGGGCCUGGAAGUUUGGACUGGGCAGAGCUCAACACGGCGUGGCAAAGUGGCUGUGGCUAGACUGCGUCUCUGGAUUCCUCGUCACUCAGCAGGGCAUCUCUGAGAGAAAUGCC [A69G C99G], the self-cleavage amounted to 0.
In the case of UACGUAGGUGGUUUUCCCCUGAUAGUGCUAAGGGGGCCUGGAAGUUUGGACUGGGCAGAGCUCAACACGGCGUGGCAAAGUGGCUGUGGCUAGACUGCCUCUCUGGAUUCCUCGUCACUUAGCAGGGCAUCUCUGAGAGAAAUGCC [A69G C120U], the self-cleavage turned out to be 0.44.
Then UACGUAGGUGGUUUUCCCCUGAUAGUGCUAAGGGGGCCUGGAAGUUUGGACUGGGCAGAGCUCAACACGGCGUGGCAAAGUGGCUGUGGCUAGACUGCCUCUCUGGAUUCUUCGUCACUCAGCAGGGCAUCUCUGAGAGAAAUGCC [A69G C111U], with 0.47; and UACGUAGGUGGUUUUCCCCUGAUAGUGCUAAGGGGGCCUGGAAGUUUGGACUGGGCAGAGCUCAACACGGCGUGGCAAAGUGGCUGUGGCUUGACUGCCUCUCUGGAUUCCUCGUCACUCAGCAGGGCAUCUCUGAGAGAAAUGCC [A69G A92U], with 0.13.
On to UACGUAGGUGGUUUUCCCCUGAUAGUGCUAAGGGGGCCUGGAAGUUUGGACUGGGCAGAGCUCAACACGGCGUGGCAAAGUGGCUGUGGCUGGACUGCCUCUCUGGAUUCCUCGUCACUCAGCAGGGCAUCUCUGAGAGAAAUGCC [A69G A92G], for which the self-cleavage worked out at 0.23.
With UACGUAGGUGGUUUUCCCCUGAUAGUGCUAAGGGGGCCUGGAAGUUUGGACUGGGCAGAGCUCAACACGGCGUGGCAAAGUGACUGUGGCUAGACUGCCUCUCUGGAUUCCUCGUCACUCAGCAGGGCAUCUCUGAGAGAAAUGCC [A69G G83A], the self-cleavage came to 0.18.
The value for UACGUAGGUGGUUUUCCCCUGAUAGUGCUAAGGGGGCCUGGAAGUUUGGACUGGGCAGAGCUCAACACGGCGUGGCAAAGUGUCUGUGGCUAGACUGCCUCUCUGGAUUCCUCGUCACUCAGCAGGGCAUCUCUGAGAGAAAUGCC [A69G G83U] was 0.15.
As for UACGUAGGUGGUUUUCCCCUGAUAGUGCUAAGGGGGCCUGGAAGUUUGGACUGGGCAGAGCUCAACACGGCGUGGCAAAGUGGCUGUGGCUAGACUGCCUCUCUGGAUUCCUCGUCACUCAGCUGGGCAUCUCUGAGAGAAAUGCC [A69G A124U], the self-cleavage worked out at 0.
As for UACGUAGGUGGUUUUCCCCUGAUAGUGCUAAGGGGGCCUGGAAGUUUGGACUGGGCAGAGCUCAACACGGCGUGGCAAAGUGGCUGUGGCUAGACUGCCUCUCUGGAUUCCUCGUCACUCAGCAAGGCAUCUCUGAGAGAAAUGCC [A69G G125A], the self-cleavage stood at 0.72.
Then UACGUAGGUGGUUUUCCCCUGAUAGUGCUAAGGGGGCCUGGAAGUUUGGACUGGGCAGAGCUCAACACGGCGUGGCAAAGUGGCUGUGGCUAGUCUGCCUCUCUGGAUUCCUCGUCACUCAGCAGGGCAUCUCUGAGAGAAAUGCC [A69G A94U], with 0.13; and UACGUAGGUGGUUUUCCCCUGAUAGUGCUAAGGGGGCCUGGAAGUUUGGACUGGGCAGAGCUCAACACGGCGUGGCAAAGUGGCUGUGGCUAGGCUGCCUCUCUGGAUUCCUCGUCACUCAGCAGGGCAUCUCUGAGAGAAAUGCC [A69G A94G], with 0.14.
For UACGUAGGUGGUUUUCCCCUGAUAGUGCUAAGGGGGCCUGGAAGUUUGGACUGGGCAGAGCUCAACACGGCGUGGCAAAGUGGCUGUGGCUAGACUUCCUCUCUGGAUUCCUCGUCACUCAGCAGGGCAUCUCUGAGAGAAAUGCC [A69G G97U], the self-cleavage amounted to 0.07.
For UACGUAGGUGGUUUUCCCCUGAUAGUGCUAAGGGGGCCUGGAAGUUUGGACUGGGCAGAGCUCAACACGGCGUGGCAAAGUGGCUGUGGCUAGACUGCCUCUCUGAAUUCCUCGUCACUCAGCAGGGCAUCUCUGAGAGAAAUGCC [A69G G106A], the self-cleavage was 0.61.
As to UACGUAGGUGGUUUUCCCCUGAUAGUGCUAAGGGGGCCUGGAAGUUUGGACUGGGCAGAGCUCAACACGGCGUGGCAAAGUGGCAGUGGCUAGACUGCCUCUCUGGAUUCCUCGUCACUCAGCAGGGCAUCUCUGAGAGAAAUGCC [A69G U85A], the self-cleavage amounted to 0.09.
